Publication PMC11281603

Biological target: polymeric Ig receptor (pIgR) fused to the FLAG tag (UniProt P01833)
Experiment: flow cytometry on cells

Sequence of UniProt P01833 (P01833 19-764): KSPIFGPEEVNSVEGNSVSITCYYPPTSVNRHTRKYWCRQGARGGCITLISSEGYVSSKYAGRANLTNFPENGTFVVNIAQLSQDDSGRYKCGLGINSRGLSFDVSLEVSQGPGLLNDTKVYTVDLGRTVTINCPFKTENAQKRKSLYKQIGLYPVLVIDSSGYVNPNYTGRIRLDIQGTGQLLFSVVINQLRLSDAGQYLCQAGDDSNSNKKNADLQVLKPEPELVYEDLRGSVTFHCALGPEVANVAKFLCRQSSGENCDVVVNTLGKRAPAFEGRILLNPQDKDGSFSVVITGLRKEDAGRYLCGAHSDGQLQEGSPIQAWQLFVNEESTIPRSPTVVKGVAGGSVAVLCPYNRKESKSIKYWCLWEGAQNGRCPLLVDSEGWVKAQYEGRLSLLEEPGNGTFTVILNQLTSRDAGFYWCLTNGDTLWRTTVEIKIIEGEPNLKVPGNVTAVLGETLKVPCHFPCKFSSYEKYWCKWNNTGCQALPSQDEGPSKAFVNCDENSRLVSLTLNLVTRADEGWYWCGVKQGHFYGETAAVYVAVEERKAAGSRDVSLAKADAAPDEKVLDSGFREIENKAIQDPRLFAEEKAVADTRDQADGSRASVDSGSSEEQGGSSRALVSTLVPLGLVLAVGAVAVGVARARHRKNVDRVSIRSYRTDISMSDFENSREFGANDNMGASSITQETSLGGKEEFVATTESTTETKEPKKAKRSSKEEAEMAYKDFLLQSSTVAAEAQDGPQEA

Substance | mean percent binding to pIgR-expressing cells, ORF8-expressing cells | mean percent binding to pIgR-expressing cells, control cells | percent ORF8 binding left with 10 ug/mL IgA
IgA from human colostrum (from UniProt P01591 23-159) (ligand) | 36.9% | 59.6% | 18%
IgM from human serum (ligand) | 25.1% | 33.9% | –
